Assay results published in the nanobody polyreactivity screen of Harvey et al. (2022).

Assay: yeast display, Sf9 membrane polyspecificity reagent, FACS + sequencing; frameworks hold sequencing errors
Summary of the method: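 A nanobody's polyreactivity label depends on the gate it was sorted from. Yeast display cells were stained with 10% biotinylated, detergent-solubilized Sf9 membrane reagent for 1 hour at 4 °C, enriched on streptavidin microbeads and sorted by FACS. The low and high (top ~1%) gates were set on anti-HA fluorescence for expression and streptavidin fluorescence for reagent binding.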

Sequence: QVQLVESGGGLLQAGGSLRLSCAASGSIFPDYAKGSYRQAPGKERELVAAITGIDGSTYADSVKGRFTISRVHAKNSVYLQINRLKPEDTAVYYCNTESIRYVPWFRFDYWGQGTQVTVSS
- polyreactivity (PSR sort gate): low polyreactivity

Sequence: QDQLVESGGGLVQAGGSLRLSCAASGRTFRYYAMGWYRQAPRKERELVAAISSGGSTNYADSVKARFTISRDNAKNTVYLQMNRLKPEDTGVYYCAVQAWYMTYSYPYSKGYYWGQGTQLTVSS
- polyreactivity (PSR sort gate): high polyreactivity

Sequence: QVQLVESGGGLVQAGGRLRLSCAASGRIFSYNAMGWYRQAPGKERELVAGITSGGRTYYADSVKGRFTISRDNAKNTVYLQMNSLKPEDTAVYYCAARYVPARTRYYYWGQGTQVTVSS
- polyreactivity (PSR sort gate): high polyreactivity

Sequence: QVQLVESGGGLVQAGGSLRLSCAASGGTFYRNAMGWSRQAPGKERELVAAINYRGDRTYYADSVKGRFTISRDNAKNTVYLQMNSLKPEDTAVYYCAADSYPAYLGFVGFDYWGQGTQVTVSS
- polyreactivity (PSR sort gate): low polyreactivity

Sequence: QVQLVESGGGLVQAGGSLRLSCAASGRIFGRNAMGWYRQAPGKERELVAAISSSGGTYYADSVKGRFTISRDNAKNTVYLQMNSLKPEDTAVYYCAADGPVTGWFYTAIGWVKYDYWGQGTQVTVSS
- polyreactivity (PSR sort gate): high polyreactivity

Sequence: QVQLVESGGGLVQAGGSLSLSCAASGRTFKPYAMGWYRQAPGKERELVAVITSNGSSTYYADSVKGRFTISRDNAKNTVYLQMNSLKPEDTAVYYCATKLTYTLTSGAYAYDYWGQGTQVTVSS
- polyreactivity (PSR sort gate): low polyreactivity

Sequence: QVQLVESGGGLVQAGGSLRLSCAASGGIFPPNVMGWYRPAPGKETELVAANSRSGGSTYYADSVKGRFTISRDNAKNTVYLQMNSLTAEDTAVYYCAAANTQRGFRYDYWGQGTQVTVSS
- polyreactivity (PSR sort gate): high polyreactivity

Sequence: QVQLVESGGGLVQAGGSIRLTCAASGSIFYHYAMGWYRQAPAKERELVADITQSGGTTDYADSVKGRFTISRDNAKNTVYLQMNSLKTEDTAVYYCAADGDTTSPTYYIFWYGEFDYCGQGTQVTVSS
- polyreactivity (PSR sort gate): low polyreactivity

Sequence: QVQLVESGGGLVQAGGSLRLSCAASGSIFFDGNAMGWYRQAPGKERELVAAINSGGTTKYADSVKGRFTISRDNAKNTVYLQMNSLKPEDTAVYYCNAREGVFRYPVAHDYWGQGTQVTVSS
- polyreactivity (PSR sort gate): low polyreactivity

Sequence: QVQLVESGGGLVQAGGSLRLSCAASGSIFELNAMGWYRQAPGKERELVAAIRWRTGRTYYADSVKGRFTISRDNAKNTVYLQMNSLKPEDTAVYYCAAPVRSGVRYTLDYWGQGTQVTVSS
- polyreactivity (PSR sort gate): high polyreactivity

Sequence: QFQLVESGGGLVQAGGSLRLSCAASGIIDGNARGWYRQAPGKEREFVATISVNDGNTYYADSVKGRFTISRDNAKNTVYLQMNSLKPEDTAVSYCATPTVYVPIPDLGDYWGQGTQVTVSS
- polyreactivity (PSR sort gate): low polyreactivity

Sequence: QVQLVESGVGLVQAGGSLRLSCAASGSIFFYAMGWYRQAPGKERELVADITYTGGSKYADSVKGRFTISRDNAKNTVYLQMNSLKPEDTAVYYCAKLDGGLFDYWGQGTQVTVSS
- polyreactivity (PSR sort gate): low polyreactivity

Sequence: QVQLVESGGGLVQAGGSLRLSCAASGSTFYFYARGWYRQAPGKERELVAVISSGGTTNYADSVKGRFTISRDNAKNTVYLQMNSLKPEDTAVYYCNAEPPRGYTVSSGGEMDYWGQGTQVTVSS
- polyreactivity (PSR sort gate): low polyreactivity

Sequence: QVQLVESGGGLVQAGGSLRLTSAASVSTFYNYAMVWYRQAPGKERELVASMTWNGGSTYYADSVKGRFTISRDNAKNTVDLQMTSLKPEDTAGSYCAAEYRDQYPTYPYYRPGYDYWGQGTQVTVSS
- polyreactivity (PSR sort gate): low polyreactivity

Sequence: QVQLVESGGGLVQAGGSLRLSCAASGLTISWNAMGWYRQAPGKERELVAAISSRGGSTYYADSVKGRFKISRDNAKNTVYLQMNSLKPEDTAVYYCAAEGYTYYPVYSTRMYYWGQGTQVTVSS
- polyreactivity (PSR sort gate): low polyreactivity

Sequence: QVQLVESGGGLVQAGGSLRLSCAASGIIFRVYAMGWYRQAPGKERELVAAITKGGGRTYYADSVKGRFTISRDNAKNTVYLQMNSLKPEDTAVYYCAARSSSSFEYWGQGTQVTVSS
- polyreactivity (PSR sort gate): high polyreactivity

Sequence: QVQLVESGGGLVQAGGSLRLSCAASGSIFWSYAMGWYRQAPGKEREFVAAISGGDGTTYYADSVKGRFTISRDNAKNTVYLQMNSLKPEDTAVYYCNAVGYWYGSLEYDYWGQGTQVTVSS
- polyreactivity (PSR sort gate): low polyreactivity

Sequence: QVQLVESGGGLVQAGGSLRLSCAASGRTFTKNAMGWYRQAPGKERELVAAISISGGSTYYADSVKGRFTISRDNAKNTVYLQMYSLKPEDTAVYYCAADVVTYLSYTLDYWGQGTQVTVSS
- polyreactivity (PSR sort gate): low polyreactivity

Sequence: QVQLVESGGGLVQAGGSLRLSCAASGYTFGLYTMGWYRQAPGKEREFVATIDWSDGGTHYADSVKGRFTISRDNAKNTVYLQMNSLKPEDTAVYYCNADWYAYPYGYWGQGTQVTVSS
- polyreactivity (PSR sort gate): low polyreactivity

Sequence: QVHLVESGGGLVQAGGSLRLSCASSGGIFVTYAMGWYRQAPGKERELVAAITSGDSTYYADSVKGRFTISRDNAKNTVYLQMNSLKPEDTAVYYCAVGSTDRVSAQGSYFTYDYWGQGTQVTVSS
- polyreactivity (PSR sort gate): low polyreactivity

Sequence: QVQLVESGGGLVQAGGSLRLSCAASGSIFSQNAMGWYRQAPGKEREFVAAIRWSAGSTYYADSVKGRFTISRDNAKNTVYLQMNSLKPEDTAVYYCNAALNVSGHYPNDYWGQGTQVTVSS
- polyreactivity (PSR sort gate): low polyreactivity

Sequence: QVQLVESGGGLVQAGGSLRLSCAASGSTFWYYALGWYRQAPGKERELVAAIRWSDGSTYYADSVKGRFTSSRDNAKNTVYLQMNSLKPEDTAVYYCEYYYWGQGTQVTVSS
- polyreactivity (PSR sort gate): low polyreactivity

Sequence: QVQLVESGGGLVQAGGSLRISCAASGRNYSYYAMGWYREAPGKERELVAAITYSGGSTYYADSVKGRFTITRDNAKNTVYLQMNSLKPEDTAVYYCAAGLSIYYWGQGTQVTVSS
- polyreactivity (PSR sort gate): low polyreactivity

Sequence: QVQLVESGGGLVQAGGSLRLSCAASGRILPRNAMGWYRQAPGKERELVAAISWDGGSTYYADSVKGRFTISRDNAKNTVYLPMIRLKPEDTAVYYCATDYPSLHRGMDYWGQGTQVTVSS
- polyreactivity (PSR sort gate): low polyreactivity

Sequence: QVQLQESGGGLVQAGGSLRLSCAASGSISHYIFMGWYRQAPGKEREFVAGIGYGGTTNYADSVKGRFTISRDNAKNTVYLQMNSLKPEDTAMYYCAAREATEFYLYYWGQGTQVTVRS
- polyreactivity (PSR sort gate): low polyreactivity

Sequence: QVQLVESGGGLVQAGGSLRLSCAASGRTFPLYAMGWYRQAPGKERELVASITSDSSTYYADSVKGRFTISRDNAKNTVYLQMNSLKPEDTAVYYCAATTIPYPYTEFDYWGQGTQVTVSS
- polyreactivity (PSR sort gate): low polyreactivity

Sequence: QVQLVESGGGLVQAGGSLRLSGAATGSIFKIMGWYRQAPGKERELVAAISSSVGNTYYADSVKGRFTISRDNAKNTVYLQMNSLKPEDTAVYYCAAQSKYYQYYSWGQRTQVTVSS
- polyreactivity (PSR sort gate): high polyreactivity

Sequence: QVQLVESGGGLVQAGGSLRLSCAASGRTFWYYAMGWYRQAPGKERELVADITRRGGGTYYADSVKGRFTISRDNAKNTVYLQMNSLKPEDTAVYYCAVERWPRSYPPSYDYWGQGTQVTVSS
- polyreactivity (PSR sort gate): high polyreactivity

Sequence: QVHLVESGGGLVQAGGSLRLSCPASGITFEHNAMGWYRQSPGKERELVAAIRWSGGSTYYADSVKGRFTISRDYAKYTVYLQMNSLKPEDTAVYYCAAYKPSTRRYDYWGQGTQVTVSS
- polyreactivity (PSR sort gate): high polyreactivity

Sequence: QVQLVESGGGLVQAGGSLRLSCAASGSTFGRYAMGWYRQAPGKERELVAAIDWSGGSTYYADSVKGRFTISRDNAKNTVYLQMNSLKPEDTAVYYCAAEAYSQYRTPGFDYYYWGQGTQVTVSS
- polyreactivity (PSR sort gate): high polyreactivity

Sequence: QVQLVESVRGFDQAGVSLRLSCAASGSIFYHNAKGLYRQATVTERELVGAITSDGSTYYADSVKGRFTISRDNGKNTVYLLMNSLKPEDTAVFYCAAEYYGHRYDYLGQGTQVTVSS
- polyreactivity (PSR sort gate): low polyreactivity

Sequence: QVQLVESGGGLVQAGGSLRLSCAASGRIFQSNAMGWNIQAPGKERELVAASNSGDSTYYADSVKGRFTISRDNAINTVYLQMNSLQPEDTAVYYSAADAVYQYYSYYYWGQGTQVTVSS
- polyreactivity (PSR sort gate): low polyreactivity

Sequence: QVQLVESGGGLVQAGGSLRLSWAASGSTFYPYAMGWYRPAPGKERELVAAISSSSSTNYADSVKGRFTISRDNAKNTVYLQMNSLKPEDTAVYYCAVTRVIESKQIRYDYWGQGTQVTVSS
- polyreactivity (PSR sort gate): low polyreactivity

Sequence: QVQLVESGGGLVQAGGSLRLSCAASGLIFIAYAMGWYRQAPGKERELVAAISSSGGSTYYADSVKGPFTISRDNAKNTFYLQMNSLKPEDTGVYYCAADRFDWGTGRYGYWVQGTQVTVSS
- polyreactivity (PSR sort gate): low polyreactivity

Sequence: QVQLVESGGGLVQAGGSLRLSCAASVIIFQVYAMGWYRQAAGKERELVAAITRRGASTYYADSVKGRFTISRDNPKNTDYLQMNSLKPEETAVYYFNARAYYRLYKSKLGYWGQGTQVTVSS
- polyreactivity (PSR sort gate): high polyreactivity

Sequence: QVQLVESRGGLVQAGGSLRLSCAASGITFRYYAMGWYRQEPGKERELVAAINRGGDSTYYADSVKGRFTISRDIAKNTVYLQMNSLKPVDTAVYYCAASSSNKEYDYWGLGTQVTVSS
- polyreactivity (PSR sort gate): high polyreactivity

Sequence: QVQLVESGGGLVQAGGSLRLSCAASGLIFYSNAMGWYRQAPGKEREFVAAITRRGGSTYYADSVKGRFTISRDNAKNTVYLQMNSLKPEDTAVYYCNARYYHKRSTRVIFQYDYWGQGTQVTVSS
- polyreactivity (PSR sort gate): high polyreactivity

Sequence: QVQLVESGGGIVQAGGSLRLSCAASGRTFKYYAMGWYRQAPGKERELVAAITSTGGSTYYADSVKGRFTISRDNAKNTVYLQMNSLKPEDTAVYYCNRYTQYRDRSDNHWGQGTQVTVSS
- polyreactivity (PSR sort gate): high polyreactivity

Sequence: QVQLVESGGGLVQAGGSLRLSCAASGSTFLYYAMGWYRQAPGKERELVATITDGGSTNYADSVKGRFTISRDNAKNTVYLQMNSLKPEDTAVYYCATDSYHYSYGYASLPEYDYWGQGTQVTVSS
- polyreactivity (PSR sort gate): low polyreactivity

Sequence: QVQLVESGGGLVQAGGSLRLSCAASGITFAYYAMGWYRQAPGKERELVAAITRGGSTFYADSVKGRFTISRDNAKNTVYLQMNSLKPEDTAVYYCAKRYGTNTRYYHPYRYDYWGQGTQVTVSS
- polyreactivity (PSR sort gate): high polyreactivity

Sequence: QVQLVESGGGLVQAGGSLRLSCAASGRIFFHYAMGWYRQPPGKERELVAVISSSGGITYYADSVKGRFTISRDNAKNTVYLQMNSLKPEDTAVYYCNTVPRPFDRYGYWGQGTQVTVSS
- polyreactivity (PSR sort gate): low polyreactivity

Sequence: QVQLVESGGGLVQAGGSLRLSCAASGSIFFQNGMGWYRQAPGKERELVAAISSSGDSTYYADSVKGRFTISRDYAKNTVYLQMNSLKPEDTAVYYCAAEPEYVSGPYDYWGQGTQVTVSS
- polyreactivity (PSR sort gate): low polyreactivity

Sequence: QVQLVESGGGLVQAGGSLRLSCAASGNIIRSYMGWYRQAPGKERELVASISRRGGSTYYADSVKGRFTISRDNAKNTVYLHMNSLKPEDTAVYYCARRWSWVNGVFGYYWGQGTQVSVSS
- polyreactivity (PSR sort gate): high polyreactivity
